The source of these data is patent US20240400670A1 (JIANGSU HENGRUI PHARMACEUTICALS, published 2024).

The IC50 is the concentration that gives 50% inhibition. A word on the Kd: it is the concentration at which binding is half-saturated. What is called koff is the rate constant with which the complex falls apart. The kon is a measure of how fast the partners come together. Usually EC50 stands for the concentration needed to bring the measured effect to its halfway point.

In experiment [1] the target is T1, human IL-23 (Sino Biological, CT048-H08H) (human, UniProt Q9NPF7 20-189; P29460 23-328).
T1 construct: also called human IL-23 protein; Human IL-23 p19
T1 sequence (looked up) 1: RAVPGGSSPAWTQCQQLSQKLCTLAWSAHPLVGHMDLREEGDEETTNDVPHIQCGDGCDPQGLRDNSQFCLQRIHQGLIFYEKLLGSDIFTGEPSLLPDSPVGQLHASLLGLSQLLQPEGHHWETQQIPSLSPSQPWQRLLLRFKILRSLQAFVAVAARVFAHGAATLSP
T1 sequence (looked up) 2: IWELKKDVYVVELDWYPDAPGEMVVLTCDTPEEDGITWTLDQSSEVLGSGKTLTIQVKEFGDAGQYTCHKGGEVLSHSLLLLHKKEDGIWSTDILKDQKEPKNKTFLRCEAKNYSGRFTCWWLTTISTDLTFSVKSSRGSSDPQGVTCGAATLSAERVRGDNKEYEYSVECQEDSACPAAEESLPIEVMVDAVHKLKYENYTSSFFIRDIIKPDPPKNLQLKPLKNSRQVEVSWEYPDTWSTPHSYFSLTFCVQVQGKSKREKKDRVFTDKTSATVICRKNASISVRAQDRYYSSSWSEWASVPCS
The experiment is described as follows: competition ELISA, blocks IL-23/IL-23R; IL-23R coated, biotin-IL-23 + sample gradient. The protocol: (§1) The specific procedures are as follows:
The receptor protein was diluted to 2 μg/mL with a PBS (BasalMedia, B320) buffer at pH 7.4 and added to a 96-well microplate (Corning, 3590) at 100 μL/well. The plate was incubated at 4° C. overnight. After the liquid was discarded, 1 % Casein blocking solution (Thermo, 37528) was added at 200 μL/well for blocking, and the plate was incubated at 37° C. for 2 h. After the blocking was complete, the blocking solution was discarded, and the plate was washed 3 times with a PBST buffer (pH 7.4 PBS containing 0.1 % tween-20) for later use. After the biotin-labeled ligand protein at a fixed concentration was mixed with an antibody or fusion protein diluted in a gradient, the mixture was pre-incubated at 37° C. for 30 min and then added to the blocked microplate. The plate was incubated at 37° C. for 1.5 h. After the incubation was complete, the plate was washed 3 times with PBST. Streptavidin-HRP (Invitrogen, 434323, diluted at 1:4000) was added at 100 μL/well, and the plate was incubated at 37° C. for 1 h. The supernatant was removed. After the plate was washed 3 times with PBST, TMB chromogenic substrate (KPL, 5120-0077) was added at 100 μL/well, and the plate was incubated at room temperature for 10⁻¹⁵ min. 1 M H₂SO₄ was added at 50 μL/well to terminate the reaction. The absorbance values at 450 nm were taken using a microplate reader. Curves for the inhibition of binding of the ligands to the receptors were fitted using software, and the IC₅₀ values were calculated.

Experiment [2] concerns the target T1, human IL-23 (Sino Biological, …). As to the kind of experiment: SPR (Biacore), Protein A capture of sample, 1:1 model. The protocol: (§2) A certain amount of test sample was subjected to affinity capture by a biosensor chip Protein A (GE, 29127556), and then antigens at a series of concentration gradients were allowed to flow on the surface of the chip. The reaction signals were detected in real time by using Biacore (GE, 8 K) to obtain association and dissociation curves. After the dissociation was completed for each cycle, the biochip was washed and regenerated with a 10 mM glycine-hydrochloric acid solution at pH 1.5 (GE, BR-1003-54). Fitting was performed based on the experimental data using BlAevaluation version 4.1 software with a 1:1 model, and affinity values were obtained.
(Surface plasmon resonance follows binding to a sensor surface in real time, without labels.)

Experiment [3] shares this target. The experiment is described as follows: cell-based or functional assay.
The target is the same in experiment [4]. The experiment is described as follows: ELISA, sample coated, IL-23 titrated, anti-His-HRP. The procedure:
as §1
The test sample was diluted to 2 μg/mL with a PBS (BasalMedia, B320) buffer at pH 7.4 and added to a 96-well microplate (Coming, 3590) at 100 μL/well. The plate was incubated at 4° C. overnight. After the liquid was discarded, 5 % skim milk (BD, 232100) diluted with PBS was added at 300 μL/well for blocking, and the mixture was incubated at 37° C. for 2 h. After the blocking was completed, the blocking solution was discarded, and the plate was washed 3 times with a PBST buffer (pH 7.4, PBS containing 0.1 % tween-20). […] After the incubation, the plate was washed 3 times with PBST. […] After the plate was washed 3 times with PBST, a TMB chromogenic substrate (KPL, 5120-0077) was added at 100 μL/well, and the mixture was incubated at room temperature for 10⁻¹⁵ min, and then 1 M H₂SO₄ was added at 50 μL/well to terminate the reaction. The absorbance values at 450 nm were taken using a microplate reader. The binding curves of antibodies to antigens were fitted using software, and the EC₅₀ values were calculated.

Experiment [5] deals with T2, mouse IL-23 (R&D Systems, 1887-ML/CF) (mouse, UniProt Q9EQ14 22-196; P43432 23-335).
T2 construct: also called Mouse IL-23 p19
T2 sequence (looked up) 1: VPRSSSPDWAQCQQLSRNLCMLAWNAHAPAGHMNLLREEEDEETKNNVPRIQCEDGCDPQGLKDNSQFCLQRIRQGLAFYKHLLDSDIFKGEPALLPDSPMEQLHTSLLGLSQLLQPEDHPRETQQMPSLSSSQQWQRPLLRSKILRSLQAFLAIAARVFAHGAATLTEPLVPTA
T2 sequence (looked up) 2: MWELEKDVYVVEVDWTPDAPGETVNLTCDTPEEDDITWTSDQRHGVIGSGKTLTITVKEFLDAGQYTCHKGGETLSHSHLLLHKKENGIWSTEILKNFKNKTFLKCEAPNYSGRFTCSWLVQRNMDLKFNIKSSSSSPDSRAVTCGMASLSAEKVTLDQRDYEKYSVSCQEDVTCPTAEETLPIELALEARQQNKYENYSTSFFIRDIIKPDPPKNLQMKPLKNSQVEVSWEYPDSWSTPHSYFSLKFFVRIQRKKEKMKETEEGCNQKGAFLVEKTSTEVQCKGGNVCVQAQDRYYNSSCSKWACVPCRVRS
As to the kind of experiment: SPR (Biacore), Protein A capture of sample.

Experiment [6] has as its target cynomolgus monkey IL-23 (Acro Biosystems, ILB-CM52W8) (cynomolgus monkey, UniProt H6WS56 20-189). The experiment is described as follows: SPR (Biacore), Protein A capture of sample, 1:1 model. The procedure:
as §2

Experiment [7] deals with T1, human IL-23 (Sino Biological, …). The experiment is described as follows: cell-based or functional assay. This is another data set of the same source.
For experiment [8], the target named is T3, IL-23 (R&D Systems, 1290-IL-010) (UniProt Q9NPF7 20-189; P29460 23-328).
T3 sequence (looked up) 1: T1 sequence (looked up) 1
T3 sequence (looked up) 2: T1 sequence (looked up) 2
The experiment is described as follows: cell-based or functional assay.

Residue numbers refer to the chain shown, from its start. Like-named read-outs stand apart in the source and are kept apart here.

B1: Hu38-2 (antibody, human IgG1, kappa, L234A L235A, V domains shown)
VH: EFQLVQSGAEVKKPGASVKVSCKASGYTFTDHNMNWVRQAPGQRLEWMGVINPNYGTTTYNQKFKGRVTITVDTSASTAYMELSSLRSEDTAVYYCARRGFAYWGQGTLVTVSS
VL: DIVMTQTPLSLPVTPGEPASISCRSSKSLLYKDGKTYLNWFLQKPGQSPQLLIYLMSTRASGVPDRFSGSGSGTDLTLKISRVEAEDVGVYYCQQIAEYPFTFGSGTKLEIKR
notes: humanized mAb38, IgG1/kappa
For the molecule B1, the IC50 in experiment [1] was found to be 0.465 nM. For the same molecule, in experiment [2], the Kd was 0.18 nM, the koff worked out at 6.05e-05 s⁻¹ and the kon came out at 337000 M⁻¹ s⁻¹. In experiment [3], the “Activity in inhibiting proliferation of BaF3-IL-23R cells (IC50, nM)” value (“Activity in inhibiting proliferation” below) came to 0.138 nM.

B2: Hu38-13 (antibody, human IgG1, kappa, L234A L235A, V domains shown)
VH: B1 VH with T28S, R44S, T74Q
VL: B1 VL with F41Y, L76F
notes: humanized mAb38, IgG1/kappa
With B2, the half-maximal inhibitory concentration (IC50) in experiment [1] turned out to be 0.455 nM. In addition, in experiment [2], the equilibrium dissociation constant (Kd) was found to be 0.27 nM, the koff stood at 5.56e-05 s⁻¹ and the association rate constant (kon) was 206000 M⁻¹ s⁻¹. In addition, in experiment [3], the “Activity in inhibiting proliferation” value was found to be 0.187 nM.

B3: Hu38-5 (antibody, human IgG1, kappa, L234A L235A, V domains shown)
VH: B1 VH with F2V, T28S
VL: B1 VL with F41Y, L76F
notes: humanized mAb38, IgG1/kappa
On to B3, for which, in experiment [1], the half-maximal inhibitory concentration (IC50) was found to be 0.228 nM. In experiment [2], this molecule displayed a Kd of 0.277 nM, a dissociation rate constant (koff) of 5.82e-05 s⁻¹ and an association rate constant (kon) of 210000 M⁻¹ s⁻¹. The “Activity in inhibiting proliferation” value in experiment [3] was determined as 0.148 nM.

B4: Hu38-9 (antibody, human IgG1, kappa, L234A L235A, V domains shown)
VH: B1 VH with T28S, T74Q
VL: B1 VL with F41Y, L76F
notes: humanized mAb38, IgG1/kappa
Take B4: in experiment [1], the IC50 turned out to be 0.496 nM. In experiment [2], this molecule returned a Kd of 0.283 nM, a koff of 6.68e-05 s⁻¹ and an association rate constant (kon) of 236000 M⁻¹ s⁻¹. For the same molecule, the “Activity in inhibiting proliferation” value in experiment [3] was 0.198 nM.

B5: Hu38-4 (antibody, human IgG1, kappa, L234A L235A, V domains shown)
VH: B1 VH
VL: B1 VL with S57Q
notes: humanized mAb38, IgG1/kappa
In experiment [4], B5 yielded a concentration for a half-maximal effect (EC50) of 1.88 nM. The binding result in experiment [5] is “no binding”. Besides, the IC50 in experiment [1] came to 0.427 nM. In experiment [2], this molecule had an equilibrium dissociation constant (Kd) of 0.196 nM, an off-rate (koff) of 6.92e-05 s⁻¹ and an on-rate constant (kon) of 353000 M⁻¹ s⁻¹. In experiment [6], this molecule had a dissociation constant Kd of 0.0768 nM, a dissociation rate constant (koff) of 3.09e-05 s⁻¹ and an on-rate (kon) of 402000 M⁻¹ s⁻¹. Further, the “Activity in inhibiting proliferation” value in experiment [3] came out at 0.122 nM.

B6: Ch29 (antibody, human IgG1, kappa, L234A L235A, V domains shown)
VH: QVQLKESGPGLVAPSQSLSITCTVSGFSLTSYAISWVRQPPGKGLEWLGVIWTGGGTNYNSGIKSRLTISKDNSKSQVFLNMNSLQTEDTARYYCVREGDYGSYAGAMDYWGQGTSVTVSS
VL: DIVLTQSPASLAVSLGQRATISCRASESVDYYGISSMHWFQQKPGQPPKLLIYRASNLESGIPARFSGSGSRTDFTLTINRVETDDVATYYCQQANKDPYTFGGGTKLEIKR
notes: chimeric: murine variable regions on hIgG1/hkappa; also called chimeric antibody of mAb29
As to B6, the half-maximal effective concentration (EC50) in experiment [4] came to 1.16 nM. Moreover, the IC50 in experiment [1] was 0.386 nM. In experiment [2], this molecule had an equilibrium dissociation constant (Kd) of 0.0207 nM, a koff of 8.4e-05 s⁻¹ and a kon of 4.05e+06 M⁻¹ s⁻¹. Besides, the “Activity in inhibiting proliferation” value in experiment [7] was determined as 0.175 nM.

B7: Ch38 (antibody, human IgG1, kappa, L234A L235A, V domains shown)
VH: EFQLQQSGPELVKPGASVKISCKASGYSFTDHNMNWVKQSNGKSLEWIGVINPNYGTTTYNQKFKGKATLTVDQSSSTAYMQLNILTSEDSAVYYCARRGFAYWGQGTLVTVSA
VL: DIVISQDELSNPVTSGESVSISCRSSKSLLYKDGKTYLNWFLQRPGQSPQLLIYLMSTRASGVSDRFSGSGSGTDLTLEISRVKAEDVGVYYCQQIAEYPFTFGSGTKLEIKR
notes: chimeric: murine variable regions on hIgG1/hkappa; also called chimeric antibody of mAb38
For the molecule B7, in experiment [4], the EC50 turned out to be 1.83 nM. In addition, the IC50 in experiment [1] is 0.361 nM. Further, in experiment [2], the affinity, expressed as Kd, was 0.0901 nM; the koff came to 5.65e-05 s⁻¹; the kon is 627000 M⁻¹ s⁻¹. In experiment [7], the “Activity in inhibiting proliferation” value stood at 0.222 nM.

B8: Hu29-19 (antibody, human IgG1, kappa, L234A L235A, V domains shown)
VH: QVTLKESGPVLVKPTETLTLTCTVSGFSLTNYAISWVRQPPGKGLEWLGVIWTGGGTNYNSGIKSRLTISKDNSKSQVVLTMTNMDPVDTARYYCVREGDYGSYAGAMDYWGQGTTVTVSS
VL: DIVLTQSPDSLAVSLGERATINCRASESVDYYGISSMHWFQQKPGQPPKLLIYRASNLESGIPARFSGSGSRTDFTLTISSLQAEDVAVYYCQQANKDPYTFGGGTKVEIKR
notes: humanized mAb29, IgG1/kappa
B8 yielded a concentration for a half-maximal effect (EC50) in experiment [4] of 1.11 nM. Also, the binding result in experiment [5] is “no binding”. Further, the IC50 in experiment [1] was found to be 0.478 nM. In experiment [2], this molecule gave a Kd of 0.0151 nM, a koff of 4.08e-05 s⁻¹ and a kon of 2.71e+06 M⁻¹ s⁻¹. In experiment [6], this molecule yielded a dissociation constant (Kd) of 0.0708 nM, a koff of 0.000192 s⁻¹ and a kon of 2.71e+06 M⁻¹ s⁻¹. Also, the “Activity in inhibiting proliferation” value in experiment [7] was found to be 0.194 nM. Further, the “IC50 for inhibiting IL-17 secretion” value in experiment [8] was found to be 0.0177 nM.
